Source: the supplement of paper PMC9233669
Variants at the floor of the assay were thinned out.

How the values were obtained:
biotinyl-Met-oxazolone = assay: self-aminoacylation, catalytic enhancement (BMO) (fold over background); higher = more active; k-Seq, kA / k0A0; sequences stand for … in GGGAAUGGAUCCACAUCUACGAAUUC…UUCACUGCAGACUUGACGAAGCUG
Procedure, shortened: (§1)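 The uncatalyzed rate is the low-activity peak of a bimodal Gaussian fit, and catalytic enhancement is median kA divided by it. The kA values came from pseudo-first-order fits, with 1000 bootstraps, of per-sequence fraction reacted measured by streptavidin capture, triplicate qPCR and Illumina sequencing. Mutagenized RNA pools with a 21-nt variable region (0.43 μM) were reacted with each biotinyl-aminoacyl-oxazolone at 2–1250 μM in 50 μL HEPES/NaCl/KCl/MgCl2/CaCl2 buffer with 5% acetonitrile, pH 6.9–7.0, for 90 minutes at room temperature.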

biotinyl-Phe-oxazolone = assay: self-aminoacylation, catalytic enhancement (BFO) (fold over background); higher = more active; k-Seq, kA / k0A0; sequences stand for … in GGGAAUGGAUCCACAUCUACGAAUUC…UUCACUGCAGACUUGACGAAGCUG
Procedure, shortened: as §1

biotinyl-Leu-oxazolone = assay: self-aminoacylation, catalytic enhancement (BLO) (fold over background); higher = more active; k-Seq, kA / k0A0; sequences stand for … in GGGAAUGGAUCCACAUCUACGAAUUC…UUCACUGCAGACUUGACGAAGCUG
Procedure, shortened: as §1

biotinyl-Ile-oxazolone = assay: self-aminoacylation, catalytic enhancement (BIO) (fold over background); higher = more active; k-Seq, kA / k0A0; sequences stand for … in GGGAAUGGAUCCACAUCUACGAAUUC…UUCACUGCAGACUUGACGAAGCUG
Procedure, shortened: as §1

biotinyl-Trp-oxazolone = assay: self-aminoacylation, catalytic enhancement (BWO) (fold over background); higher = more active; k-Seq, kA / k0A0; sequences stand for … in GGGAAUGGAUCCACAUCUACGAAUUC…UUCACUGCAGACUUGACGAAGCUG
Procedure, shortened: as §1

biotinyl-Val-oxazolone = assay: self-aminoacylation, catalytic enhancement (BVO) (fold over background); higher = more active; k-Seq, kA / k0A0; sequences stand for … in GGGAAUGGAUCCACAUCUACGAAUUC…UUCACUGCAGACUUGACGAAGCUG
Procedure, shortened: as §1

Row | Sequence | self-aminoacylation (biotinyl-Met-oxazolone) | self-aminoacylation (biotinyl-Phe-oxazolone) | self-aminoacylation (biotinyl-Leu-oxazolone) | self-aminoacylation (biotinyl-Ile-oxazolone) | self-aminoacylation (biotinyl-Trp-oxazolone) | self-aminoacylation (biotinyl-Val-oxazolone)
1 | UUUCACCUUGGUCAUCGGGUG [Fam2.2 aminoacylation ribozyme variant] | 6.53 | 45.4 | 5.87 | 4.31 | 6.96 | 5.49
2 | CUACUUCAUACAAUCGGUCUG [Fam1A.1 aminoacylation ribozyme variant] | 0.668 | 0.808 | 0.643 | 0.707 | 0.553 | 0.743
3 | CCACACUUCAAACAAUCGGUG [Fam1B.1 aminoacylation ribozyme variant] | 4.77 | 4.88 | 6.19 | 2.96 | 4.19 | 3.01
4 | CCACACGACAAGCAAUCGGUC [Fam1B.1 aminoacylation ribozyme variant] | 0.948 | 0.767 | 0.697 | 0.924 | 0.908 | 1.37
5 | CUACUGCAAACAAUCGCUCUG [Fam1A.1 aminoacylation ribozyme variant] | 0.898 | 3.05 | 1.2 | 1.2 | 0.702 | 1.08
6 | CCACACUUCAAUCACUCGGUC [Fam1B.1 aminoacylation ribozyme variant] | 0.763 | 0.947 | 0.773 | 0.936 | 0.753 | 0.984
7 | AUUACCCUCGUCAUCGAGUUA [Fam2.1 aminoacylation ribozyme variant] | 0.915 | 0.569 | 0.983 | 0.965 | 0.486 | 0.943
8 | CUACUUCAACCAAUCGGUCUG [Fam1A.1 aminoacylation ribozyme variant] | 1.07 | 33.1 | 1.48 | 0.988 | 18.7 | 1.04
9 | CUACUUCAAUCAAUCGGUAUG [Fam1A.1 aminoacylation ribozyme variant] | 0.961 | 10.8 | 0.88 | 0.797 | 6.33 | 0.848
10 | CUACUCCAAACGAUCGGUCUG [Fam1A.1 aminoacylation ribozyme variant] | 0.643 | 0.979 | 0.91 | 0.854 | 0.445 | 0.812
